Laboratory results taken from paper PMC5454376, “Molecular mechanism of Gαi activation by non-GPCR proteins with a Gα-Binding and Activating motif” (Nature Communications, 2017).

B1: Ric-8A: non-receptor GEF used as control (protein)
chain: TGEEDAVTEALRSFNREHSQSFTFDDAQQEDRKRLAKLLVSVLEQGLSPKHRVTWLQTIRILSRDRSCLDSFASRQSLHALACYADIAISEEPIPQPPDMDVLLESLKCLCNLVLSSPTAQMLAAEARLVVRLAERVGLYRKRSYPHEVQFFDLRLLFLLTALRTDVRQQLFQELHGVRLLTDALELTLGVAPKENPLVILPAQETERAMEILKVLFNITYDSVKREVDEEDAALYRYLGTLLRHCVMADAAGDRTEEFHGHTVNLLGNLPLKCLDVLLALELHEGSLEFMGVNMDVINALLAFLEKRLHQTHRLKECVAPVLSVLTECARMHRPARKFLKAQVLPPLRDVRTRPEVGDLLRNKLVRLMTHLDTDVKRVAAEFLFVLCSESVPRFIKYTGYGNAAGLLAARGLMAGGRPEGQYSEDEDTDTEEYREAKASINPVTGRVEEKPPNPMEGMTEEQKEHEAMKLVNMFDKLSR
modifications: left off: GST, end not stated, kept
notes: non-receptor GEF used as control
B2: CALNUC: GBA motif protein with calcium-binding EF hands (protein, UniProt Q02818 27-461, looked up)
Nucleobindin-1: VPLERGAPNKEETPATESPDTGLYYHRYLQEVIDVLETDGHFREKLQAANAEDIKSGKLSRELDFVSHHVRTKLDELKRQEVSRLRMLLKAKMDAEQDPNVQVDHLNLLKQFEHLDPQNQHTFEARDLELLIQTATRDLAQYDAAHHEEFKRYEMLKEHERRRYLESLGEEQRKEAERKLEEQQRRHREHPKVNVPGSQAQLKEVWEELDGLDPNRFNPKTFFILHDINSDGVLDEQELEALFTKELEKVYDPKNEEDDMREMEEERLRMREHVMKNVDTNQDRLVTLEEFLASTQRKEFGDTGEGWETVEMHPAYTEEELRRFEEELAAREAELNAKAQRLSQETEALGRSQGRLEAQKRELQQAVLHMEQRKQQQQQQQGHKAPAAHPEGQLKFHPDTDDVPVPAPAGDQKEVDTSEKKLLERLPEVEVPQHL
B3: GAIP: GAIP (also known as RGS19), a GAP used as control (protein)
chain: MPTPHEAEKQITGPEEADRPPSMSSHDTASPAAPSRNPCCLCWCCCCSCSWNQERRRAWQASRESKLQPLPSCEVCATPSPEEVQSWAQSFDKLMHSPAGRSVFRAFLRTEYSEENMLFWLACEELKAEANQHVVDEKARLIYEDYVSILSPKEVSLDSRVREGINKKMQEPSAHTFDDAQLQIYTLMHRDSYPRFLSSPTYRALLLQGPSQSSSEA
modifications: left off: GST, end not stated, kept
notes: GAIP (also known as RGS19), a GAP used as control

Legend:
[1] = system: Gαi3-[ ]; test: Pull-down, nucleotide-free Gαi3; assay type: binding, rat; settings: GST fusion on glutathione-agarose (GIV 1,671–1,755; Ric-8A 12–491), 4 °C, pH 8.1, immunoblot
Experimental: (§1) Preparation of nucleotide-free Gαi3 and pull-down assay
(§2) His-tagged rat Gαi3 cloned in a pET28b vector was purified from BL21(DE3) bacteria (Life Technologies) after isopropyl-[beta]-D-thiogalactoside (IPTG) induction. Nucleotide-free Gαi3 was prepared by promoting nucleotide release with high concentrations of ammonium sulfate in the presence of glycerol. For this, His-Gαi3 was run through a Superdex S75 column equilibrated with 20 mM Tris-HCl (pH 7.4), 20 mM NaCl, 1 mM MgCl2, 1 mM dithiothreitol (DTT), 10 μM GDP and 5% (v/v) glycerol. A volume of 200 μl of His-Gαi3 at ∼5 μM were loaded on a Sephadex G-25 column (10 ml) equilibrated with 1 M ammonium sulfate, 20% (v:v) glycerol (pH 6) and the protein eluted at room temperature with the same buffer. Protein-containing fractions were pooled (∼400–600 μl) and incubated overnight at 4 °C. […] After transfer to polyvinylidene difluoride (PVDF) membranes, GST-fused proteins were visualized by Ponceau S staining and His-Gαi3 detected by immunoblotting with mouse anti-polyHis-Tag primary antibodies (1:2,500, Sigma, H1029) and goat anti-mouse IRDye 800F(ab′)2 secondary antibodies (1:10,000, Li-Cor) using an Odyssey Infrared Imaging System (Li-Cor Biosciences). […]

[2] = system: Gαi3 N269D; test: Co-immunoprecipitation in HEK293T cells, Gαi3 N269D versus WT; assay type: binding; settings: HEK293T lysates, FLAG-tagged Gαi3 N269D vs WT; GST-Ric-8A 1 μg added
Experimental: HEK293T cells (American Type Culture Collection) were grown at 37 °C in DMEM supplemented with 10% FBS, 100 U ml^−1 penicillin, 100 μg ml^−1 streptomycin, 1% L-glutamine and 5% CO2. DNA plasmids encoding for C-terminally 3xFLAG-tagged Gαi3 (ref. [25]) or an empty plasmid (p3xFLAG-CMV-14) were transfected using the calcium phosphate method in 10 cm dishes. The DNA amount for the Gαi3 N269D plasmid was threefold (12 μg) of that for Gαi3 WT (4 μg) to equalize their expression levels. Cells were collected 48 h after transfection by gently scrapping in PBS, centrifuged and resuspended in 1 ml of lysis buffer (20 mM HEPES (pH 7.2), 5 mM Mg(CH3COO)2, 125 mM K(CH3COO), 0.4% (v:v) Triton X-100, 1 mM DTT, 10 mM β-glycerophosphate and 0.5 mM Na3VO4 supplemented with a protease inhibitor cocktail (Sigma; catalogue #S8830)) and cleared (14,000g for 10 min) before use. Lysates were supplemented with 1 μg of purified GST-Ric-8A (12–491)[22] and 2 μg of mouse anti-FLAG antibody (Sigma F1804), and incubated for 4 h at 4 °C with rotation. BSA-blocked Protein G agarose beads (Thermo-Scientific) were added and tubes incubated for additional 90 min at 4 °C. Beads were washed four times (4.3 mM Na2HPO4, 1.4 mM KH2PO4, pH 7.4, 137 mM NaCl, 2.7 mM KCl, 0.1% (v/v) Tween 20, 10 mm MgCl2, 5 mm EDTA and 1 mm DTT) and immunoprecipitated proteins eluted by boiling in Laemmli sample buffer. […]

[3] = system: Gα; settings: cited from earlier work
From the text: GBA proteins also differ from the non-receptor GEF Ric-8A. Although both Ric-8A and GBA proteins activate monomeric Gα instead of Gαβγ trimers, removal of the C terminus of Gα only abrogates Ric-8A action. This indicates a different mode of G-protein binding for Ric-8A that resembles how GPCR bind. […] We are confident about the similarity on which the model was built because of several lines of evidence presented in this manuscript and in previously published work. […] Second, sequence similarity with the KB-752 and rudimentary modeling allowed us to identify residues in the GBA motif of GIV ...

[4] = system: Gαi3-[GTP]; test: Pull-down, GDP/AlF4^−-loaded Gαi3; assay type: binding, rat; settings: GST fusion on glutathione-agarose, 4 °C, pH 8.1, immunoblot
Experimental: as §1, §2

[5] = system: Gαi3-[GDP]; test: Pull-down, GDP-loaded Gαi3; assay type: binding, rat; settings: GST fusion on glutathione-agarose, 100 μM GDP, 4 °C, pH 8.1, immunoblot
Experimental: as §1, §2

[6] = system: Gαi3; settings: GBA motif of CALNUC; cited from earlier work
From the text: The disordered nature of GIV-CT is intrinsic and not a consequence of the truncation of the protein at residue 1,660 since disorder is predicted for the C-terminal 330 residues of the GIV sequence, and larger fragments of GIV can also recapitulate G-protein binding and/or activation in a GBA motif-dependent manner. The ...

Row | Molecule | binding to Gαi3-[ ] [1] | co-immunoprecipitation with nucleotide-free-mimicking mutant compared with WT [2] | effect of removal of the C terminus of Gα [3] | binding to Gαi3-[GTP] [4] | binding to Gαi3-[GDP] [5] | Gαi3 binding, calcium dependence [6]
1 | B1 | binds preferentially | binds more | abrogates | dissociation | weaker binding | 
2 | B2 |  |  |  |  |  | only when the protein is not calcium-bound
3 | B3 |  |  |  | binds exclusively | not to Gαi3-[GDP] | 
